Consider 29 molecules from patent US20040258695A1, “Transferrin binding peptides and uses thereof” (priority 2003, published 2004).

Assay [1] addresses T1, human transferrin (hTf) (Homo sapiens, UniProt P02787).
T1 construct: purchased Sigma
Kind of assay: First M. catarrhalis TbpB N-lobe overlapping peptide library screened with β-galactosidase conjugated hTf (colorimetric). The following applies: 15 mer peptides with 4-amino acid overlap. Format: binding. From the text:
(§1) Generation of the overlapping peptide libraries representing human transferrin or the TbpB N-lobe regions from different bacteria was by the ‘SPOTSCAN’ method (Genosys Biotechnologies) (13). Essentially the library consisted of linear peptides 15 amino acids in length that were immobilized onto a cellulose membrane using 9-flurorenylmethoxycarbonyl (Fmoc) amino acid-based synthesis. One membrane was used to generate a library of the C-lobe of hTf consisting of ninety-six 15 amino acid peptides with an 11 amino acid overlap. The overlapping hTf peptide represented amino acids 285 to 679 of the intact hTf protein (accession # NP_001054). The first peptide library representing TbpB N-lobe from M. catarrhalis 4223 (accession #AAC34277) consisted of thirty-two 15 amino acid peptides with a 4 amino acid overlap and included N-lobe amino acids 12-421. The amino acid numbers refer to the amino acids in the predicted mature, processed protein (i.e. the N-terminal cysteine is amino acid 1). The second peptide library representing M. catarrhalis 4223 TbpB N-lobe peptides included amino acids 27-421 but with an 11 amino acid overlap.
(§2) Two different methods for labeling proteins for library screening were used. Iron loaded human Tf (Sigma) was labeled by chemical cross-linking (using 3-maleimidobenzoic acid-N-hydroxysuccinimide ester) to a beta-galactosidase (β-gal) reporter enzyme as described elsewhere (18). This was used as a probe for calorimetric detection on the composite peptide library. The second method involved conjugating the truncations of the N-lobe of TbpB from M. catarrhalis 4223 to horseradish peroxidase (HRP). HRP conjugated proteins can be detected by chemiluminescence, providing a much more sensitive screen. The truncations were conjugated to HRP using the Linx HRP Rapid Protein Conjugation Kit (Invitrogen). These labeled fusion proteins were then used as a probe for chemiluminescent detection.
Binding experiments of hTf to the first peptide library was by the calorimetric method (Genosys Biotechnologies). Essentially hTf in blocking solution (10% Blocking buffer (Genosys Biotechnologies), 50 mg/ml sucrose, T-TBS, (0.137 M NaCl, 2.68 mM KCl, 50.4 mM Tris-Base, 0.05% Tween-20, pH8.0) was incubated with the membrane containing the peptide library for 4 hours at room temperature. The membrane was then washed sequentially in T-TBS and PBS before detection of bound beta-galactosidase using 5-bromo-4-chloro-3-indoyl-β-D-galactopyranoside (X-gal). Positive binding was determined by the development of a blue spot.
Initially, an overlapping peptide library representing the TbpB N-lobe of M. catarrhalis was prepared and probed for binding to labeled hTf. This library was comprised of thirty-two 15 mer peptides with a 4-amino acid overlap representing amino acids 12-421 of the mature M. catarrhalis TbpB. The library was screened for binding to β-galactosidase (β-gal) conjugated hTf (β-gal-hTf ) and a number of positive-binding peptides were detected with varying intensity of colored product.

In assay [2] the test system is TbpB N-lobe from M. catarrhalis 4223 (Mbp fusion truncations). Briefly: hTf C-lobe overlapping peptide library probed with HRP-labeled TbpB N-lobe truncations (chemiluminescence). Type of assay: binding, Moraxella catarrhalis. Particulars: for Binding By Truncations, Segments Included 1: TbpB N-lobe segment 1; for Binding By Truncations, Segments Included 1-2: TbpB N-lobe segments 1-2.
Text: as §1
TbpB truncations were generated by PCR-based cloning into the pMal expression system (New England BioLabs) as described previously (33). Essentially, amplified tbpB gene segments were subcloned into the pMal-c2 expression vector to generate an in frame fusion with the malE gene. Intact Moraxella catarrhalis 4223 TbpB consisted of amino acids 3-680 where 1 represents the N-terminal cysteine of the mature processed protein. Amino acids 1 and 2 from the mature protein were removed to ease cloning and subsequent expression. The N-terminal half of this gene consisted of amino acids 3 to 421. The truncated TbpB proteins were expressed as maltose binding protein fusions in E. coli ER2507 or ER2508 (for segments 1 and 1-2) and purified by amylose affinity chromatography.
as §2
For increased sensitivity, the TbpB N-lobe truncations from M. catarrhalis were conjugated to HRP for production and detection of chemiluminescent product. The membrane was rinsed with methanol and washed with 3 changes (5 minutes each) of TBS (0.137 M NaCl, 2.68 mM KCl, 50.4 mM Tris-Base, pH=8.0) on a rocking platform. The membrane was blocked by rocking at room temperature in blocking solution consisting of 20 ml of 0.5% Skim milk powder (BioRad) in TBS for 2.5 hours. The membrane was washed with T-TBS 3 times before being incubated with one of the HRP conjugated truncations diluted 1:1000 in skim milk blocking solution for 4 hours at room temperature. The membrane was then washed again 3 times with T-TBS, drained and incubated with 10 ml of Lumiglo mixture (Kirkegaard and Perry Laboratories) for 5 minutes. It was then exposed to X-omat Blue XB-1 X-Ray film (Kodak) for at least 30 seconds before developing. Positive peptides show up as dark spots on a light background.
To plan the truncation experiments, the N-lobe of M. catarrhalis was divided into seven segments with the identified binding peptides at their junctions. […]

Assay [3] addresses T2, human transferrin (hTf), iron loaded (human, UniProt P02787 20-698).
T2 construct: Used as a labelled probe (beta-gal conjugate for library 1, HRP conjugate for library 2 and the solid-phase assay); also called β-gal-hTf; HRP conjugated hTf
Briefly: TbpB overlapping peptide library probed with labelled hTf as in Example 1.

The target of assay [4] is T3, β-galactosidase alone (UniProt P00722 2-1024 = β-galactosidase).
T3 construct: Negative control probe for library 1; also called beta-galactosidase
T3 sequence (P00722 2-1024 limits assumed): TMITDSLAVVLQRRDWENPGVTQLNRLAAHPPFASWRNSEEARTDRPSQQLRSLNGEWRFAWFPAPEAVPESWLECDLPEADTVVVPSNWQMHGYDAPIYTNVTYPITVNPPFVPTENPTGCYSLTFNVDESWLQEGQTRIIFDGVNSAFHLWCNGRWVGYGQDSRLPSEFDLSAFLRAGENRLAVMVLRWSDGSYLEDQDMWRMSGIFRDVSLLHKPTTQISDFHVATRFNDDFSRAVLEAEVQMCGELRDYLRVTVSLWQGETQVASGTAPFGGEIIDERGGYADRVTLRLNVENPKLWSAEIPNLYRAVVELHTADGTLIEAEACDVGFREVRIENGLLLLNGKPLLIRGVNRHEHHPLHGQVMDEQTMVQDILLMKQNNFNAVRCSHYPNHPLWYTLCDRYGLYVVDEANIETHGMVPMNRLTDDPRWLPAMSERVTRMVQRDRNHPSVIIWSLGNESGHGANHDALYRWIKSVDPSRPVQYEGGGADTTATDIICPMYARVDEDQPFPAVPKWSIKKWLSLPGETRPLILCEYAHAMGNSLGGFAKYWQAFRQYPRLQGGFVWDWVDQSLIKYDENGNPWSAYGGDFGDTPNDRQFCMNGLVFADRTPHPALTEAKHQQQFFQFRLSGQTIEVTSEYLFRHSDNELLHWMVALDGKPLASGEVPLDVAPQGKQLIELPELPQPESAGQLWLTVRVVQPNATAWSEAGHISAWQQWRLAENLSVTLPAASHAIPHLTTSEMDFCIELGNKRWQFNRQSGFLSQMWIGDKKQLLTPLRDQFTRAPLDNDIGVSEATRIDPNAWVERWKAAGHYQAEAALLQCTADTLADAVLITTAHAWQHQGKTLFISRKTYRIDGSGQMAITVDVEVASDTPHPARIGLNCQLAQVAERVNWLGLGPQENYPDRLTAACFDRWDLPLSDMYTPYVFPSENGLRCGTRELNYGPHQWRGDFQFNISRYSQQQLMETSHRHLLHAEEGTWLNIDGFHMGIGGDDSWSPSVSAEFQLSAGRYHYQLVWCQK
Kind of assay: SPOT peptide library 1 probed with beta-galactosidase alone, colorimetric.

In assay [5] the target is T2, human transferrin (hTf), iron loaded. Kind of assay: SPOT peptide library 1 of TbpB N-lobe probed with beta-gal-hTf, colorimetric.
The target of assay [6] is T4, HRP alone (UniProt P00433 31-338).
T4 construct: Negative control probe for library 2; also called horseradish peroxidase
T4 sequence: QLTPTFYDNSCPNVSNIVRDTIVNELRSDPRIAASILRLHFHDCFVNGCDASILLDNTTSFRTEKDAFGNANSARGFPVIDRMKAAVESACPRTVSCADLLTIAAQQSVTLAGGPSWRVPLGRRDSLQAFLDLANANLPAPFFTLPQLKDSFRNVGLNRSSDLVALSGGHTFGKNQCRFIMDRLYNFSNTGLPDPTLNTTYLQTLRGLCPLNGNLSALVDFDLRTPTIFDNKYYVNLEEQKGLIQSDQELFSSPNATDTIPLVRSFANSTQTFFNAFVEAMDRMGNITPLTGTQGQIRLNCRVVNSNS
Briefly: SPOT peptide library 2 probed with HRP alone, chemiluminescence.

The target in assay [7] is T2, human transferrin (hTf), iron loaded. Briefly: SPOT peptide library 2 of TbpB N-lobe probed with HRP-hTf, chemiluminescence.

T2 sequence (P02787 20-698 limits assumed): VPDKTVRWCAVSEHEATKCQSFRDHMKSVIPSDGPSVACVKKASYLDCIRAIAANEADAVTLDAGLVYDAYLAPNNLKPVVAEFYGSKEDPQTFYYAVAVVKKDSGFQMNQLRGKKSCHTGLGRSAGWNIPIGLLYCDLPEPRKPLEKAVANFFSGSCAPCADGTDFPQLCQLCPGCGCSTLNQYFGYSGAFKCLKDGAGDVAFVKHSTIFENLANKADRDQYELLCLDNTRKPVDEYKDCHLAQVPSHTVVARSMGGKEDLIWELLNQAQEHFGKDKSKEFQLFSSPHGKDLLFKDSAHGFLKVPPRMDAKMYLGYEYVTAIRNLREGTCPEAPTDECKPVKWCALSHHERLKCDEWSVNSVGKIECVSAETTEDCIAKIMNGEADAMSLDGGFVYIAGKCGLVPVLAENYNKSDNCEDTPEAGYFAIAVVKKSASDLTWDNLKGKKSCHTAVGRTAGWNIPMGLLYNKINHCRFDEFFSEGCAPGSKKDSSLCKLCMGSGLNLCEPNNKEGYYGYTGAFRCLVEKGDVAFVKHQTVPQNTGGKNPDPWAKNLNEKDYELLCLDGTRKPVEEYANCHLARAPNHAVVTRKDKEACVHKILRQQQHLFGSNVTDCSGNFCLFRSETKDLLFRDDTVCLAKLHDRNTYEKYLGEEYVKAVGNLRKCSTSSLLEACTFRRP
T1 sequence (P02787 20-698): as the sequence (P02787 20-698 limits assumed) above

As to “agwyygasskdeynr (AGWYYGASSKDEYNR; M. catarrhalis) [Peptide 85]”, the “binding to β-gal-hTf, intensity of colored product” value (“binding to β-gal-hTf, intensity” below) in assay [1] is on record as “weakly positive”.

In the case of chlarapnhavvtrk [Peptide 44], the “Binding By Truncations, Segments Included 1-5” value in assay [2] (TbpB N-lobe segments 1-5, listed as 16 (yellow)) is “lost reactivity”.

“danihgnrfrgsata (DANIHGNRFRGSATA; M. catarrhalis) [Peptide 92]”: the “binding to β-gal-hTf, intensity” value in assay [1] is reported as “strongly positive”.

“fmtdvanrrnrfsev (FMTDVANRRNRFSEV; M. catarrhalis) [Peptide 83]”: in assay [1], the “binding to β-gal-hTf, intensity” value is on record as “moderately positive”.

“fsnlqdrhkgnvtkt (FSNLQDRHKGNVTKT; M. catarrhalis) [Peptide 90]”: in assay [1], the “binding to β-gal-hTf, intensity” value is reported as “strongly positive”.

As for “gpvggvfyngtttak (GPVGGVFYNGTTTAK; M. catarrhalis) [Peptide 80]”, the “binding to β-gal-hTf, intensity” value in assay [1] is reported as “strongly positive”.

As to gsnvtdcsgnfclfr [Peptide 45], in assay [2] (listed as 18 (brown)), the “Binding By Truncations, Segments Included 1” value is reported as “loss of binding”.

With “gyygytgafrclvek (GYYGYTGAFRCLVEK; listed as Homo sapiens) [Peptide 43, hTf C-lobe library peptide, domain 2 (Red)]”, the “Binding By Truncations, Segments Included 1-2” value in assay [2] (listed as 15 (red)) is recorded as “lost reactivity”.

In the case of “kksasdltwdnlkgk (KKSASDLTWDNLKGK; listed as Homo sapiens) [Peptide 40, hTf C-lobe library peptide, domain 2 (Green)]”, the “Binding By Truncations, Segments Included 1-3” value in assay [2] (TbpB N-lobe segments 1-3, listed as 12 (green)) is recorded as “lost reactivity”.

Turning to “kylgeeyvkavgnlr (KYLGEEYVKAVGNLR; listed as Homo sapiens) [Peptide 47, hTf C-lobe library peptide, tail (Cyan)]”, in assay [2] (TbpB N-lobe segments 1-6, listed as 20 (Cyan)), the “Binding By Truncations, Segments Included 1-6” value was “bound all of the peptides except the one”.

With “lcmgsglnlcepnnk (LCMGSGLNLCEPNNK; listed as Homo sapiens) [Peptide 42, hTf C-lobe library peptide, domain 2 (Red)]”, the “Binding By Truncations, Segments Included 1-2” value in assay [2] (listed as 14 (red)) was “lost reactivity”.

As for “mgygmalskinlhnr (MGYGMALSKINLHNR; M. catarrhalis) [Peptide 65]”, the “binding to β-gal-hTf, intensity” value in assay [1] is given as “moderately positive”.

Turning to “nipmgllynkinhcr (NIPMGLLYNKINHCR; listed as Homo sapiens) [Peptide 41, hTf C-lobe library peptide, domain 2 (Blue)]”, the “Binding By Truncations, Segments Included 1-4” value in assay [2] (TbpB N-lobe segments 1-4, listed as 13 (Blue)) is given as “lost reactivity”.

Turning to tdcsgnfclfrsetk [Peptide 46], the “Binding By Truncations, Segments Included 1” value in assay [2] (listed as 19 (brown)) is given as “loss of binding”.

B1: H. influenzae TbpB peptide RNSGGGQAYSRRSAT (peptide)
peptide: RNSGGGQAYSRRSAT
notes: library peptide
Consider B1, for which the binding result in assay [3] is on record as “binds”.

B2: M. catarrhalis TbpB N-lobe peptide fmtdvanrrnrfsev (peptide)
peptide: FMTDVANRRNRFSEV
notes: SPOT peptide immobilised on cellulose membrane; also called spot #83
For B2, the binding result in assay [4] is given as “no binding”; in assay [5], “binds”.

B3: M. catarrhalis TbpB N-lobe peptide mgygmalskinlhnr (peptide)
peptide: MGYGMALSKINLHNR
notes: SPOT peptide immobilised on cellulose membrane; also called spot #65
Turning to B3, the binding result in assay [4] is given as “no binding”; in assay [5], “binds”.

B4: M. catarrhalis TbpB N-lobe peptide fsnlqdrhkgnvtkt (peptide)
peptide: FSNLQDRHKGNVTKT
notes: SPOT peptide immobilised on cellulose membrane; also called spot #90
Take B4: the binding result in assay [4] is “no binding”; in assay [5] it was “binds”.

B5: H. influenzae TbpB peptide IQSWSLRDLPNKKFY (peptide)
peptide: IQSWSLRDLPNKKFY
notes: library peptide
Regarding B5, the binding result in assay [3] is on record as “binds”.

B6: H. influenzae TbpB peptide APNSNENRHGQKYVY (peptide)
peptide: APNSNENRHGQKYVY
notes: library peptide
B6: in assay [3], the binding result is given as “binds”.

B7: M. catarrhalis TbpB N-lobe peptide danihgnrfrgsata (peptide)
peptide: DANIHGNRFRGSATA
notes: SPOT peptide immobilised on cellulose membrane; also called spot #92
Regarding B7, the binding result in assay [4] was “no binding”; in assay [5] it was “binds”.

B8: H. influenzae TbpB peptide AALNLFDRNKPSLLN (peptide)
peptide: AALNLFDRNKPSLLN
notes: library peptide
Consider B8, for which the binding result in assay [3] was “binds”.

B9: M. catarrhalis TbpB N-lobe peptide dfmtdvanrrnrfse (peptide)
peptide: DFMTDVANRRNRFSE
notes: SPOT peptide immobilised on cellulose membrane
Regarding B9, the binding result in assay [6] is recorded as “no binding”; in assay [7], “binds”.

B10: H. influenzae TbpB peptide SALPVGGVATYKGTW (peptide)
peptide: SALPVGGVATYKGTW
notes: library peptide
B10: the binding result in assay [3] was “binds”.

B11: H. influenzae TbpB peptide YKGTWSFITAAENGK (peptide)
peptide: YKGTWSFITAAENGK
notes: library peptide
As to B11, in assay [3], the binding result is “binds”.

B12: M. catarrhalis TbpB N-lobe peptide agwyygasskdeynr (peptide)
peptide: AGWYYGASSKDEYNR
notes: SPOT peptide immobilised on cellulose membrane; also called spot #85
In the case of B12, the results for the binding result in assay [4] and in assay [5] were “no binding” and “binds”, respectively.

B13: M. catarrhalis TbpB N-lobe peptide gpvggvfyngtttak (peptide)
peptide: GPVGGVFYNGTTTAK
notes: SPOT peptide immobilised on cellulose membrane; also called spot #80
Take B13: the results for the binding result in assay [4] and in assay [5] were “no binding” and “binds”, respectively.

B14: H. influenzae TbpB peptide TDANKSQNRTHKLYD (peptide)
peptide: TDANKSQNRTHKLYD
notes: library peptide
B14: the binding result in assay [3] is given as “binds”.

B15: H. influenzae TbpB peptide GKFLAHDKKVLGVFS (peptide)
peptide: GKFLAHDKKVLGVFS
notes: library peptide
As to B15, the binding result in assay [3] is given as “binds”.
